Tested on: Bacillus subtilis
Assay: cleaved RNA product abundance (RNA/gDNA barcode ratio) relative to median wild-type variant (ratio to wild type); higher = more accumulation of the downstream cleavage product
Outline: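 Reporter mRNAs (truncated aprE or tetM) carrying barcoded, mutagenized RNase Y cleavage-site windows were made from oligos with a 9% error rate and integrated into the B. subtilis chromosome. Cultures grew in LB at 37°C from OD600 0.0003 to 0.3. Cleaved RNA was gel-selected, reverse transcribed and barcode-sequenced alongside genomic DNA barcodes, with UMI collapsing. Cleaved product abundance is the RNA:gDNA barcode ratio per variant, scaled to the median wild-type variant.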

[1] = experiment (reporter, strain, medium): exp 2b: truncated aprE reporter, strain BJT200, cleavage site: cggR-gapA (positions -7 to +36 mutated)
[2] = experiment (reporter, strain, medium): exp 4a: truncated aprE reporter, strain BJT201 with 2% xylose (RNase J1 expressed), cleavage site: cggR-gapA (positions -7 to +36 mutated)
[3] = experiment (reporter, strain, medium): exp 8a: truncated aprE reporter, strain BJT201 with 2% xylose (RNase J1 expressed), cleavage site: glnRA (positions -5 to +31 mutated)
[4] = experiment (reporter, strain, medium): exp 6: tetM reporter, strain 168, cleavage site: cggR-gapA (positions -7 to +36 mutated)

| Sequence | cleaved RNA product abundance [1] | cleaved RNA product abundance [2] | cleaved RNA product abundance [3] | also measured |
| --- | --- | --- | --- | --- |
| ACAGACGAAGGAGCCGCAGAGAAGTTATTAAGGGATGAATAATCCCTCAATATAAATAACTCTCACTTATTTAAA | 0.518 | 0.451 | – | – |
| ACAGACGAAGGAGCCGCAAATAAGTCATTAAGGGATGAATAATCCCTCAATATAAATATCTCTCACTTATTTAAA | – | 0.28 | – | – |
| ACAGACGAAGGAGCCGCAAAGGAATTATTAAGGGATGAATAATCCCTCAATATAAATATCTCTCACTTATTTAAA | – | 0.671 | – | – |
| CGACATGTCCCGCTTCTTTCATTAATCAGTTAGCAACTATTTTGCTATATACATTTACCTTTTAAGAGGAGGAAT | – | – | 1.97 | – |
| ACAGACGAAGGAGCCGCAGAGAAGTTATTAAGAGATGAATAATCCCTCAATATAAATATCTCTCACTTATTTAAA | 0.0994 | 0.118 | – | – |
| CGACATGTCCCGCTTCTTTCATTAATCCGTTAGCAACTTTTTTGTTATATACATTTACCTTTTAAGAGGAGGAAT | – | – | 0.748 | – |
| ACAGACGAAGGAGCCGCAAAGAAGTTATTAAGGGATAACTAATCCCTCAATATAAATATCTCTCACTTATTTAAA | – | 0.57 | – | – |
| CGACATGTCCCGCTTCTTTCATTAATCCGTTAGCATCTGTTTTGCTATATACATTTACATTTTAAGAGGAGGAAT | – | – | 1.1 | – |
| ACAGACGAAGGAGCCGCAAAGAAGTTATTAAGGCTTGAATAATCCCTCAATATAAATATCTCTCACTTATTTAAA | 0.115 | 0.11 | – | – |
| CGACATGTCCCGCTTCTTTCATTAATCCGTTAGCAACTGTTTTGTTATATACATTTAACTTTTAAGAGGAGGAAT | – | – | 0.617 | – |
| CGACATGTCCCGCTTCTTTCATTAATCCGTTATCAACTGTTTTGCTATATACATTTACCATTTAAGAGGAGGAAT | – | – | 0.269 | – |
| CGACATGTCCCGCTTCTTTCATTAATCCGTAAGCAACTGTTTTGATATATACATTTACCTTTTAAGAGGAGGAAT | – | – | 0.329 | – |
| ACAGACGAAGGAGCCGCAAAGAAGTTATTAAGGGATGAATAATCCCACCATATAAATATCTCTCACTTATTTAAA | 0.16 | 0.228 | – | – |
| ACAGACGAAGGAGCCGCAAAGAAGTTATTAAGGGATTAATAATCCCTCAATATACATATCTCTCACTTATTTAAA | – | 0.799 | – | – |
| ACAGACGAAGGAGCCGCAAAGACGTTATTAATGGATGAATAATCCTTCAATATAAATATCTCTCACTTATTTAAA | – | 0.23 | – | – |
| CGACATGTCCCGCTTCTTTCATTAATCCGTTAGGAAATGTTTTGCTATATACATTTACCTTTTAAGAGGAGGAAT | – | – | 0.361 | – |
| ACAGACGAAGGAGCCGCAAAGAAGTTATTAAGGGATGAATAATCCTTCAAGATAAATATCTCTCACTTATTTAAA | – | 0.162 | – | – |
| ACAGACGAAGGAGCCGCAAAGAAGTTATTAAGGGATGAATAATTCCTAAATATAAATATCTCTCACTTATTTAAA | – | 0.508 | – | – |
| ACAGACGAAGGAGCCGCAATGAAGTTATTAAGGGATGAATAATGCCTCAATATAAATATCTCTCACTTATTTAAA | 0.122 | – | – | – |
| ACAGACGAAGGAGCCGCAAAGAAGTTATTAAGACATGAATAATCCCTCAATATAAATATCTCTCACTTATTTAAA | 0.111 | 0.132 | – | – |

| Sequence | cleaved RNA product abundance [1] | cleaved RNA product abundance [2] | cleaved RNA product abundance [3] | also measured |
| --- | --- | --- | --- | --- |
| CGACATGTCCCGCTTCTTTCATTAATCCGTTAGCAAATGTTTTGCTATATACATTAACCTTTTAAGAGGAGGAAT | – | – | 1.13 | – |
| ACAGACGAAGGAGCCGCAAAGAAGTAATTAAGGGATGAATAATCCCTCACTATAAATATCTCTCACTTATTTAAA | 0.135 | 0.168 | – | – |
| ACAGACGAAGGAGCCGCAAAGAAGTTATTAAAGGATGAATAATCCCACAATATAAATATCTCTCACTTATTTAAA | 0.113 | 0.173 | – | – |
| ACAGACGAAGGAGCCGCAAAGAAGTTATTAACGGATGAATAATCCCTCAAAATAAATATCTCTCACTTATTTAAA | 0.105 | 0.158 | – | – |
| ACAGACGAAGGAGCCGCAAAGAAGTTATTAAGGGATGAATATTCCCGCAATATAAATATCTCTCACTTATTTAAA | – | 0.221 | – | – |
| CGACATGTCCCGCTTCTTTCATTAATCGGTTAGCAACTGTTTTGCTATATACATTTACCTTTTAAGAGGAGGAAT | – | – | 0.613 | – |
| CGACATGTCCCGCTTCTTTCATTAATACGTTAGCAACTGATTTGCTATATACATTTACCTTTTAAGAGGAGGAAT | – | – | 1.24 | – |
| ACAGACGAAGGAGCCGCAAAGAAGTTATTAAGGGATTAATAATCCCTCAATATAAATGTCTCTCACTTATTTAAA | – | 0.707 | – | – |
| ACAGACGAAGGAGCCGCAAAGAAGTTATTAAGGGATGAATTATCCCTCTATATAAATATCTCTCACTTATTTAAA | – | 0.3 | – | – |
| CGACATGTCCCGCTTCTTTCATTAATCCGTTAGCAACTGTTTTGCTATATACCTTTACCTTTTAAGAGGAGGAAT | – | – | 0.283 | – |
| CGACATGTCCCGCTTCTTTCATTAATCCGTTAGCAACTGTTTTGCCATATACATTTACCTTTTAAGAGGAGGAAT | – | – | 0.205 | – |
| ACAGACGAAGGAGCCGCAAAGAAGTTATTAAGGAATGAATAATCCCTCAATATACATATCTCTCACTTATTTAAA | – | 0.118 | – | – |
| ACAGACGAAGGAGCCGCAAAGAAGTAATTAAGGGATGAATAATCCGTCAATATAAATATCTCTCACTTATTTAAA | – | 0.179 | – | – |
| ACAGACGAAGGAGCCGCAAAGAAGTTATTAAAGGATGAAGAATCCCTCAATATAAATATCTCTCACTTATTTAAA | – | 0.232 | – | – |
| CGACATGTCCCGCTTCTTTCATTAATCCGTTAGCAACTGTTTTGCGATATACATTTACGTTTTAAGAGGAGGAAT | – | – | 0.36 | – |
| ACAGACGAAGGAGCCGCAAAGAAGTTATTAAGGGATGAATTATCCCTAAATATAAATATCTCTCACTTATTTAAA | 0.399 | 0.433 | – | – |
| ACAGACGAAGGAGCCGCAAAGAAGTTATTAAAGGATGAATAATCCCTCCTTATAAATATCTCTCACTTATTTAAA | – | 0.0791 | – | – |
| ACAGACGAAGGAGCCGCAAAGAAGTTATTAAGGGATGAATAATCCCTCAATATAAATAGCTCTCACTTATTTAAA | 0.637 | 0.616 | – | cleaved RNA product abundance [4]: 0.688 |
| ACAGACGAAGGAGCCGCAAAGAAGCTATTAAGGGATGAATATTCCCTCAATATAAATATCTCTCACTTATTTAAA | 0.469 | 0.56 | – | – |
| CGACATGTCCCGCTTCTTTCATTAATCCATTAGCAACTGTTTTGCTAAATACATTTACCTTTTAAGAGGAGGAAT | – | – | 0.47 | – |

| Sequence | cleaved RNA product abundance [1] | cleaved RNA product abundance [2] | cleaved RNA product abundance [3] | also measured |
| --- | --- | --- | --- | --- |
| ACAGACGAAGGAGCCGCAAAGAAGTTATTAAGAGATCAATAATCCCTCAATATAAATATCTCTCACTTATTTAAA | 0.0924 | 0.0785 | – | – |
| ACAGACGAAGGAGCCGCAAAGAAGTTATTAAGGGATGAATAATCCCTCAATATAAATGTCTCTCACTTATTTAAA | 0.498 | 0.636 | – | cleaved RNA product abundance [4]: 0.546 |
| ACAGACGAAGGAGCCGCTAAGAAGTTATTAAGGGATGAATAATCCCTCAACATAAATATCTCTCACTTATTTAAA | – | 0.291 | – | – |
| ACAGACGAAGGAGCCGCAAAGAAGTAATTAAGGCATGAATAATCCCTCAATATAAATATCTCTCACTTATTTAAA | – | 0.0969 | – | – |
| ACAGACGAAGGAGCCGCAAAGAATTTATTAAGGGATGAATAATCCCTCAAAATAAATATCTCTCACTTATTTAAA | 0.198 | 0.273 | – | – |
| CGACATGTCCCGCTTCTTTCATTAATCCGTTAGCCAGTGTTTTGCTATATACATTTACCTTTTAAGAGGAGGAAT | – | – | 0.333 | – |
| CGACATGTCCCGCTTCTTTCATTAATCCGTAAGCAATTGTTTTGCTATATACATTTACCTTTTAAGAGGAGGAAT | – | – | 0.524 | – |
| ACAGACGAAGGAGCCGCAAAGAAGTTATTAAGGGATGAATAATCCCTCTATATATATATCTCTCACTTATTTAAA | – | 0.418 | – | – |
| ACAGACGAAGGAGCCGCAAAGAAGTTATTAAGGAATGAATAATCCCTCTATATAAATATCTCTCACTTATTTAAA | 0.12 | 0.119 | – | – |
| CGACATGTCCCGCTTCTTTCATTAATCCGTTAGTAACTTTTTTGCTATATACATTTACCTTTTAAGAGGAGGAAT | – | – | 0.636 | – |
| ACAGACGAAGGAGCCGCAAAGAAGTTATTAAGGGATGAATAATCCCCCTATATAAATATCTCTCACTTATTTAAA | – | 0.151 | – | – |
| ACAGACGAAGGAGCCGCAAATAAGTTATTAAGGGATGAATAATTCCTCAATATAAATATCTCTCACTTATTTAAA | – | 0.547 | – | – |
| ACAGACGAAGGAGCCGCAAAGAATTTATTAAGGGATGAATAATCCCTCAATATTAATATCTCTCACTTATTTAAA | 0.109 | – | – | – |
| ACAGACGAAGGAGCCGCAAAGAAATTCTTAAGGGATGAATAATCCCTCAATATAAATATCTCTCACTTATTTAAA | 0.186 | 0.199 | – | – |
| CGACATGTCCCGCTTCTTTCATTAATCCGTTATCAACTGTTTTGCTATATGCATTTACCTTTTAAGAGGAGGAAT | – | – | 0.135 | – |
| ACAGACGAAGGAGCCGCAAAGAAGGTCTTAAGGGATGAATAATCCCTCAATATAAATATCTCTCACTTATTTAAA | – | 0.115 | – | – |
| CGACATGTCCCGCTTCTTTCATTAATCCGTTAGCTACTGTTTTGCTATATACATTTACCTTTTAAGAGGAGGAAT | – | – | 0.56 | – |
| CGACATGTCCCGCTTCTTTCATTATTCCGATATCAATTGTTTCGCTATATACATTTACCTTTTAAGAGGAGGAAT | – | – | 0.147 | – |
| ACAGACGAAGGAGCCGCAAAGAAGTTATTAAGGGATTAATAATCCCTCAATATAATTATCTCTCACTTATTTAAA | – | 0.43 | – | – |
| ACAGACGAAGGAGCCGCAAAGAAGTTATTAATGGATGAATAATCACTTAATATAAATATCTCTCACTTATTTAAA | – | 0.194 | – | – |
